Entries after “also recorded” stand apart in the source; their conditions may differ.
Experiments:
[1] = molecular target: hT40 (Homo sapiens, UniProt P10636); assay: Biacore X100 SPR, scAb captured via anti-HuCk, hT40 as analyte; format: binding; conditions: '3a' and '3b' scAbs, Table 25, hT40
In short: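 Captured scAb on anti-HuCk CM5 surface (flow cell 1 as reference) in HBS-EP+, capture set for theoretical RMax 100 RU; hT40 injected multi-cycle (0.15625–100 nM) or single-cycle (6.25–100 nM), 120 s association, 420 s dissociation, glycine pH 2.0 regeneration. Kinetics and affinity from 1:1 binding model fit.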

[2] = molecular target: hT40, dGA, dGAE and truncated tau fragments/peptides (Homo sapiens, UniProt P10636); assay: Binding ELISA for epitope mapping with truncated tau proteins and biotinylated 13mer peptides; conditions: scAbs used as negative controls in thioflavin T assay; data not shown
Procedure: A series of binding ELISA was performed using various truncated versions of the tau protein and 13mer peptide libraries spanning the entire hT40 molecule for mapping the epitopes of anti-tau scAbs (Full list of protein antigens used is given in Table 14). In general, ELISA plates were coated with 1 μg/ml hT40 or dGA or dGAE or other truncated versions of the protein and in the case of biotinylated peptides, plates were coated with 5 μg/ml Streptavidin followed by 1 μg/ml biotinylated peptide. The plates were blocked with 2% MPBS and scAb samples added at desired starting concentrations and double diluted across the plate. Binding was detected using anti-Human C Kappa HRP conjugated secondary antibody and the resulting immunoreaction was developed and absorbance values measured as described above.
Similarly, dGA binding ‘NS’, ‘S’ and ‘M’ group scAbs were subjected to further antigen binding ELISA using shorter tau proteins and biotinylated 13mer peptides as shown below (FIGS. 10A-F) and (FIGS. 11A-R).
For anti-tau mAb SPR measurements (Biacore X100™) and epitope mapping, the same methodologies described above (see Example 16) were followed.

[3] = molecular target: dGAE aggregates (Homo sapiens, UniProt P10636); assay: Sandwich ELISA on SDS/Triton X-100 treated dGAE aggregates; format: binding; conditions: S1D12 mAb capture, S1G2 scAb detection; SDS + Triton X-100 treated
Procedure: For aggregation, 1000 μL 100 μM dGAE+10 μL 10 mM DTT was added to a ‘LoBind’ microfuge tubes and agitated at 700 RPM/37° C., for 24 hours. Resulting sample centrifuged at 17,000×g/4° C., for 60 min and supernatant discarded to remove left over monomer. Pellet resuspended in half the original volume for future experiments and hereafter referred to as ‘aggregates’. 1 μl of aggregates was added to 1 ml of PBS and SDS was added to a final concentration of 1% (w/v). This was left to incubate on lab bench for 1 h with gentle agitation every 15 minutes. In order to neutralise the SDS effect on ELISA, Triton X-100 added to a final concentration of 3% (v/v) and mixed gently by pipetting to prevent any bubble formation. […] Similarly aggregates treated with only SDS or Triton X-100, untreated aggregates, dGAE monomers treated with only SDS or SDS+Titon X-100 were also added to designated wells as controls. All samples were then double diluted across the plate in final volumes of 100 μl. The final column was left with no protein to act as a blank. This was allowed to stand at room temperature for 1 hour followed by the addition of detection scAb-S1G2 at 10 μg/ml. Anti-HuCk HRP labelled secondary antibody was added as described previously and ELISA data generated was represented using the graph below. In addition, limits of detection (LoD) of various core binding antibody pairing for SDS Triton X-100 treated dGAE aggregates were calculated using the above describe ELISA method and substituting capture mAbs and detection scAbs as shown in Table 30.

[4] = molecular target: aggregated dGAE (Homo sapiens, UniProt P10636); assay: Capture ELISA ranking of mAbs on dGAE aggregates; format: binding; conditions: 1 μg/ml capture mAb, 800 nM aggregated dGAE
Procedure: The aggregation cascade of natively unfolded tau into insoluble filaments is a defining pathological feature of AD. Therefore, it is logical to target aggregated tau filaments for both therapeutic and diagnostic purposes. The following experiment was performed to assess the ability of our dGA mAb panel to bind aggregated dGAE using a capture ELISA method. Aggregates were prepared by incubating 100 μM dGAE and 10 mM dTT for 24 h at 37° C. with shaking at 700 RPM. The following day, dGAE aggregates were centrifuged at 17,000×g for 20 min and the supernatant was removed. The remaining pellet was washed with 10 mM phosphate buffer and centrifuged as above. Washing was repeated a further two times to remove any remaining dGAE monomer. The dGAE pellet was resuspended in 100 μl of 10 mM phosphate buffer. (Using a separate capture ELISA based quantification, we have worked out the efficiency of our dGAE aggregation as 80%)
For assessing the mAb panel for aggregate binding, designated rows of a maxisorp plate were coated with 1 μg/ml of each of the capture mAbs (S1D12, S1G2, CA4, NS2A1, CE2, E2E8 and CB7) and blocked as before. Following washing, 800 nM aggregated dGAE was added to the designated wells, double diluted across the plate and incubated for 1 h at RT. The plate was washed again and 1 μg/ml S1G2 scAb was added as detection antibody and incubated for 1 h at RT. To the row where S1G2 mAb was used for capture, […] s1D12 scAb was added as […] instead of S1G2. The assay was developed using HRP labelled HuCK as described previously.

[5] = Pharmacokinetic study of S1D12 mAb, single dose, plasma and brain (dGAE ligand binding ELISA); format: in vivo, mouse; conditions: single dose 30 mg/kg i.p., NMRI mice
Procedure: For the PK study, a total of 42 female NMRI mice (Swiss-type mouse, Naval Medical Research Institute) aged 6 months were allocated into six groups according to sample collection time (Table 30 for group size). Animals were injected intraperitoneally with S1D12 (30 mg/kg) and sacrificed 24-, 48-, 72-hours and 7-, 14- and 31-days after injection to collect blood and brain samples. A control group was also included in which animals were sacrificed to collect blood and brain, but no test item was administered.
Blood samples were centrifuged to obtain plasma at 2000×g for 5 min at 6° C., and samples were stored at −20° C. After blood collection, each mouse was perfused with heparinized saline for 2-3 minutes and the entire brain removed rapidly and snap frozen in liquid nitrogen and stored at −80° C.
Briefly, dGAE (1 μg/mL) was used to coat ELISA plates and blocked with 2% Marvel. […] Following washing, HRP-conjugated anti-mouse IgG as detector was added, and the assay developed using TMB solution as normal. The absorbance at 450 nm was read using a Clariostar plate reader (BMG Labtech) and MARS Clariostar software used to calculate S1D12 concentration from a standard curve.
Average values from each group (representing a time point) was plotted (FIG. 10) and the in vivo half-life, Cmax and Tmax calculated by performing a non-compartmental analysis of the plasma data using the PKSolver2.0 software (FIG. 51, Table 31). […] Here a higher coating concertation of dGAE at 10 μg/ml was used to compete off antibody binding to tau present in the brain.

[6] = Six-week repeat-dose study, S1D12 mAb in plasma and brain; format: in vivo, mouse
Procedure: (§1) In a six-week repeat-dose study, a total of 12 WT, 12 Line 1 (L1) and 12 Line 66 homozygotes (L66+/*) female mice aged 2-months at the beginning of the study were used (Table 32 for group size). Mice in each genotype were injected intraperitoneally (i.p.) with either vehicle or S1D12 (30 mg/kg), once per week, for six consecutive weeks.
Mice treated with S1D12 were culled seven days after the last dosing whereas vehicle-treated animals were sacrificed the following day, i.e. 8 days post-treatment. Mice were anaesthetized using an overdose of sodium pentobarbital administered intraperitoneally for blood collection. Blood was transferred to plastic vials containing lithium heparin anticoagulant, centrifuged to obtain the plasma and the entire brain was removed as described previously. Plasma and brain samples (stored at −20° C., and −80° C., respectively) were subjected to further biochemical analysis.

[7] = molecular target: T1, human tau (Homo sapiens, UniProt P10636, G652D/P618S); assay: Western blot ratio of human to mouse tau in L66+/+ brain after 6-week S1D12 mAb therapy; format: in vivo; conditions: L66+/+ mice, 30 mg/kg i.p. weekly for 6 weeks vs vehicle, S1G2 detection
T1 construct: sample A with 5 nM full length human tau (hT40); from tissue; host or cells: brain homogenate of L66+/+ transgenic mice expressing the human tau transgene
Procedure: as §1
A hemisphere of each Line 66^+/+ mouse brain was suspended in RIPA buffer and homogenised. Samples were left on ice for 1 hour and subsequently centrifuged for 10 minutes at 10,000×g at 4° C. The supernatant was collected, and the total protein was quantified using a BCA Protein Assay Kit. Brain homogenate supernatant from each mouse was separated via sodium dodecyl sulphate polyacrylamide gel electrophoresis (SDS-PAGE) with MES running buffer. […] Following washing, the secondary antibody, sheep anti-mouse IgG-HRP, was added, and the membrane was washed five times with PBST and developed with Clarity Western ECL Substrate and read using a BioSpectrum Gel imaging System (UVP). Results were analysed using ImageJ-Fiji (NIH, Version 1.53) where densitometric analysis was performed and the ratio of human to mouse tau densities was calculated.

[8] = test system: plasma tau; assay: Plasma tau (Simoa) after S1D12 immunotherapy; format: in vivo, mouse; design: plasma tau, core and proline region pairing (S1G2-BT2) / plasma tau, proline region pairing (BT2-HT7): unit not given here
Procedure: as §1
Three-step assays were performed and analysed as per previously described plasma screening methods in this document.

T1 sequence (P10636 1-441 isoform P10636-8 P301S/G335D): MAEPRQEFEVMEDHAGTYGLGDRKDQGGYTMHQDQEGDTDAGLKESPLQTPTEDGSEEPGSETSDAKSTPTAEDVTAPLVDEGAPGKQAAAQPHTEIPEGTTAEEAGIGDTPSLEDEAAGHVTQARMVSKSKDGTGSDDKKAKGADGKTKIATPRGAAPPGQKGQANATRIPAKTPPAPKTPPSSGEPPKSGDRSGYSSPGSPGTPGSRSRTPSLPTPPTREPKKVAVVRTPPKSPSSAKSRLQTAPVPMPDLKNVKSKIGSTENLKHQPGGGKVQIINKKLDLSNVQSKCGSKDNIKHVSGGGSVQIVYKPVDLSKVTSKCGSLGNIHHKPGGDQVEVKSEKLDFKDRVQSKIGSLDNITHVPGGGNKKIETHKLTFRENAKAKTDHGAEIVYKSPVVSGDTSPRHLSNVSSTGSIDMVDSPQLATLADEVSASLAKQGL
Sequence of hT40 (P10636 1-441 isoform P10636-8): as the sequence (P10636 1-441 isoform P10636-8 P301S/G335D) above, with S301P, D335G counted along it
Sequence of aggregated dGAE (P10636 614-708): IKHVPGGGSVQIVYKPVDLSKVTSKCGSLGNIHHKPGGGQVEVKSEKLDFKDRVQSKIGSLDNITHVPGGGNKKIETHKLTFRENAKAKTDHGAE
Sequence of hT40, dGA, dGAE and truncated tau fragments/peptides (P10636 614-708): as above
Sequence of dGAE aggregates (P10636 614-708): as above

Molecule | ka [1] [M⁻¹ s⁻¹] | kd [1] [s⁻¹] | cross reactivity to dGAE [2] | dGAE aggregates detectable in sandwich ELISA [3] | ability to capture aggregated dGAE [4] | Tmax in the brain [5] [h] | Cmax ([5]; read-out: Cmax in the brain) [nM] | increase in S1D12 concentration in plasma following repeat dosing ([6]; WT mice, 30 mg/kg once per week for 6 weeks vs single dose, 7 days post dose) [fold] | plasma S1D12 antibody crossing the blood brain barrier ([6]; WT, L1 and L66+/+ mice, 30 mg/kg weekly for 6 weeks) | ratio of human tau to mouse tau in brain [7] | difference in plasma tau vs vehicle, S1G2-BT2 ([8]; L1 and wildtype mice) | plasma tau, core and proline region pairing (S1G2-BT2) ([8]; L66+/+ mice, S1D12 mAb 30 mg/kg weekly for 6 weeks) | increase in plasma tau vs vehicle, S1G2-BT2 ([8]; L66 mice) | plasma tau, proline region pairing (BT2-HT7) ([8]; L66 mice, S1D12 mAb 30 mg/kg weekly for 6 weeks)
3aD3: anti-tau clone, SEQ ID NO: 422 (protein, 3aD3 amino acid sequence) scFv: QVQLQESGPSLVKPSQTLSLTCTVSGFSLTSNGVGWVRRAPGKVPEWVGDISSGGKVYGHPALKSRLSITRDTSKSQVSLSVSSVTSEDTAVYYCVRCRDGGVSYGYDSDYWGPGLLVTVSSEGKSSGASGESKVDDQAVVTQPSSVSKSLGQSVSITCSGSSSNVGYGDYVGWFQQVPGSAPKLLIYGVTERASGVPDRFSGSRSGNTATLTISSIQAEDEADYYCASYDDSSGGIFGSGTRLTVLG | 544400 | 0.01038 | no cross reactivity to dGAE | – | – | – | – | – | – | – | – | – | – | –
S1D12 mAb: S1D12 reformatted as mAb, heavy chain SEQ ID NO: 445, light chain SEQ ID NO: 446 (antibody, S1D12 mAB Heavy Chain; S1D12 mAB Light Chain) heavy: QVQLQESGPSLVKPSQTLSLTCTVSGFSLNNNAVGWVRQAPGKVPESLVGCSSDGTCYYNSALKSRLDITRDTSKNQISLSLSSVTTDDAAVYYCTRGHYSIYGYDYLGTIDYWGPGLLVTVSSAKTTAPSVYPLAPVCGDTTGSSVTLGCLVKGYFPEPVTLTWNSGSLSSGVHTFPAVLQSDLYTLSSSVTVTSSTWPSQSITCNVAHPASSTKVDKKIEPRGPTIKPCPPCKCPAPNLLGGPSVFIFPPKIKDVLMISLSPIVTCVVVDVSEDDPDVQISWFVNNVEVHTAQTQTHREDYNSTLRVVSALPIQHQDWMSGKEFKCKVNNKDLPAPIERTISKPKGSVRAPQVYVLPPPEEEMTKKQVTLTCMVTDFMPEDIYVEWTNNGKTELNYKNTEPVLDSDGSYFMYSKLRVEKKNWVERNSYSCSVVHEGLHNHHTTKSFSRTPGK light: QAVLTQPSSVSGSLGQRVSITCSGSSSNVGGGNSVGWYQHLPGSGLKTIIYDTNSRPSGVPDRFSGSRSGNTATLTINSLQAEDEGDYYCVTGDSTTHDDLVGSGTRLTVLGGQPKSSPSVTLFPPSSEELETNKATLVCTITDFYPGVVTVDWKVDGTPVTQGMETTQPSKQSNNKYMASSYLTLTARAWERHSSYSCQVTHEGHTVEKSLSRADCS | – | – | – | approximately 2 ng/ml | most efficient at capturing aggregated dGAE | 48 | 6.2 | > 3 | 0.15-0.3% | A decrease in the ratio of human tau to mouse tau; also recorded: A decrease in the levels of human tau was observed | not statistically significant | 1438±275 | more than a threefold increase | 127±55

From patent US12624096B2, “Anti-tau antibodies and methods of use thereof” (GTInvent Limited, priority 2020, dated 2026)
